{
  "source": "patent US20150164800A1",
  "about": "“REGULATING THE INTERACTION BETWEEN TAM LIGANDS AND LIPID MEMBRANES WITH EXPOSED PHOSPHATIDYL SERINE” (priority 2012, published 2015)",
  "key": {"[1]": {"system": "EbGP-pseudotyped virus", "format": "cell-based, mouse", "settings": "300 nM, 24 h post-infection, FIG. 4C"}, "[2]": {"biological_target": "T1, Mer (Mus musculus, UniProt Q60805)", "T1 sequence (Q60805 19-994)": "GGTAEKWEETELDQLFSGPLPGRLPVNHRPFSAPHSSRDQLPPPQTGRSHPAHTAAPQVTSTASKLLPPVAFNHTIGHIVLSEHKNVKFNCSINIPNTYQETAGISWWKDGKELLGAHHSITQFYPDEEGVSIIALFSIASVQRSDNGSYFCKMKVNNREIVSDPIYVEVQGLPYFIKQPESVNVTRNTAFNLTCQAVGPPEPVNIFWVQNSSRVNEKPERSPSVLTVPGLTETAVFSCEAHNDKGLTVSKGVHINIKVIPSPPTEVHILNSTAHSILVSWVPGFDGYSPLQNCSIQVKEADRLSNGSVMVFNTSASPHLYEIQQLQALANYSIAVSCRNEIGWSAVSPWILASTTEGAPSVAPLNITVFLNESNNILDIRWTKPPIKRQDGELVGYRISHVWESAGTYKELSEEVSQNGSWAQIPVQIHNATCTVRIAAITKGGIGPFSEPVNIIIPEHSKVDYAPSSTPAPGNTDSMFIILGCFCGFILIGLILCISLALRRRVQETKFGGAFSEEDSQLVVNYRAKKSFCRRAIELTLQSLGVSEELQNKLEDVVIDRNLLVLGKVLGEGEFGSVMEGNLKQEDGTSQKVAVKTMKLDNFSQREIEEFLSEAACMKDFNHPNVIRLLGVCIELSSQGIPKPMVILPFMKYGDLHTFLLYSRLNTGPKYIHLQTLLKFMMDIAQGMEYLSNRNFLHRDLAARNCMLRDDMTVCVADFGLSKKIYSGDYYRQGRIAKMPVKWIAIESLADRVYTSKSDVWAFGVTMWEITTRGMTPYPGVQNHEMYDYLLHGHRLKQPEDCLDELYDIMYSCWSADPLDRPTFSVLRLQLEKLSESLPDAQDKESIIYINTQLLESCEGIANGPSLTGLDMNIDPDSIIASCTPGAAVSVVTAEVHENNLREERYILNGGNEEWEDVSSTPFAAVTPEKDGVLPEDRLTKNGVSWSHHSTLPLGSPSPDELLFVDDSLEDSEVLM", "experiment": "Gas6-stimulated TAM receptor activation (phosphotyrosine IP-immunoblot) in BMDMs, Mer", "format": "cell-based", "settings": "WT-BMDMs pre-treated 30 min, stimulated with 10 nM Gas6 for 10 min; FIG. 4B", "protocol": "Immunoprecipitation and immunoblot analysis was conducted as described above."}, "[3]": {"biological_target": "T1, Mer", "format": "cell-based", "settings": "WT-BMDCs"}, "[4]": {"biological_target": "Axl (Mus musculus, UniProt Q00993)", "sequence (Q00993 19-888)": "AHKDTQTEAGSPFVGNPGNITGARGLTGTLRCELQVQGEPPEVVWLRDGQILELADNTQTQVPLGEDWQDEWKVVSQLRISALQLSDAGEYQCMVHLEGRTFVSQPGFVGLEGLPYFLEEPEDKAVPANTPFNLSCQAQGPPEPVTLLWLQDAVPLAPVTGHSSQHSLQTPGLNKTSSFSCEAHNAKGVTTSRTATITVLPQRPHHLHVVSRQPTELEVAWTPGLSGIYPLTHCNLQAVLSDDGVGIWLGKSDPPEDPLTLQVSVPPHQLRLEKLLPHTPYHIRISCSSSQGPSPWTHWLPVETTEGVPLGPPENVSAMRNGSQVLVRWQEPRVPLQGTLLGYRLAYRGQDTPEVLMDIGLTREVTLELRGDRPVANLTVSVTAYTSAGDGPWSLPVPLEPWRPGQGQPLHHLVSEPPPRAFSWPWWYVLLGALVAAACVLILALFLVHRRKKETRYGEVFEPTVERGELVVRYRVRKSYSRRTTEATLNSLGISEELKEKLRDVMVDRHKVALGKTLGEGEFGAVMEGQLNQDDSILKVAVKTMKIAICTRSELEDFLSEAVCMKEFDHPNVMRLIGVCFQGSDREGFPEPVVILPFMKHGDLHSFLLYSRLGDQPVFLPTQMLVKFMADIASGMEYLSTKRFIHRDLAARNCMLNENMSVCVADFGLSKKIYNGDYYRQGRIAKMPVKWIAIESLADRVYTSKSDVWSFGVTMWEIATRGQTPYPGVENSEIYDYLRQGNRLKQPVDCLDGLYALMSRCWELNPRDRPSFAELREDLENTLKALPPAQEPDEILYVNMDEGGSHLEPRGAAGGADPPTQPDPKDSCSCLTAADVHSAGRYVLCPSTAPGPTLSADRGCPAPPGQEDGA", "format": "cell-based"}, "[5]": {"system": "DENV", "settings": "Axl-expressing HEK293 cells; concentration approximately 7-fold higher than 100 nM; Meertens et al. (2012); cited from earlier work"}, "[6]": {"system": "Axl", "sequence (Q00993 19-888)": "as above", "format": "cell-based, mouse", "settings": "100 nM, BMDCs; FIG. 5B"}},
  "data": [
    {"molecule": "CCOc1ccn(-c2ccc(F)cc2)c(=O)c1C(=O)Nc1ccc(Oc2ccnc(N)c2Cl)c(F)c1", "note": "[BMS-777607]", "values": [
      {"measurement": "effect on infection deficiency of TAM TKO BMDCs (HIV-1 DNA level)", "setting": "[1]; TAM TKO-BMDCs", "result": "not further reduced"},
      {"measurement": "susceptibility to virus infection (HIV-1 DNA level) versus untreated WT BMDCs", "setting": "[1]; WT-BMDCs", "result": "much less susceptible"},
      {"measurement": "concentrations effectively inhibiting ligand-dependent receptor activation (Mer)", "setting": "[2]", "result": "30 to 300", "unit": "nM"}
    ]},
    {"molecule": "Protein S: purified human Protein S, TAM ligand (Mer and Tyro3 ligand)", "values": [
      {"measurement": "virus-mediated potentiation of ligand-triggered signaling with MAV-1 (Mer)", "setting": "[3]; 1 nM hProS plus non-enveloped MAV-1", "result": "not seen"},
      {"measurement": "Mer activation by ligand alone", "setting": "[3]; 0.5-2 nM hProS, 5 min, FIG. 2A", "result": "rapid dose-dependent activation"},
      {"measurement": "effect of VSVg pseudotyped virus on stimulatory effect of ligand (Mer activation)", "setting": "[3]; ligand plus enveloped VSVg pseudotyped virus, dose-response shifted to lower concentrations", "result": "dramatically potentiated"}
    ]},
    {"molecule": "Gas6: recombinant mouse Gas6, pan-TAM ligand", "values": [
      {"measurement": "potentiation of Gas6-induced Axl activation by bald HIV-1 virions versus VSVg-pseudotyped virions", "setting": "[4]; BMDCs, bald virions lacking viral glycoproteins, FIG. 6B", "result": "equally competent"},
      {"measurement": "virus-mediated potentiation of ligand-triggered signaling with MAV-1 (Axl)", "setting": "[4]; WT-BMDCs, 1 nM mGas6 plus non-enveloped MAV-1", "result": "not seen"},
      {"measurement": "Axl activation by ligand alone", "setting": "[4]; WT-BMDCs, 0.25-1 nM mGas6, 5 min, FIG. 2B", "result": "rapid dose-dependent activation"},
      {"measurement": "effect of VSVg pseudotyped virus on stimulatory effect of ligand (Axl activation)", "setting": "[4]; WT-BMDCs, ligand plus enveloped VSVg pseudotyped virus, dose-response shifted to lower concentrations", "result": "dramatically potentiated"}
    ]},
    {"molecule": "Annexin V: a known PtdSer-binding protein (protein, UniProt P08758 2-320, looked up) Annexin A5: AQVLRGTVTDFPGFDERADAETLRKAMKGLGTDEESILTLLTSRSNAQRQEISAAFKTLFGRDLLDDLKSELTGKFEKLIVALMKPSRLYDAYELKHALKGAGTNEKVLTEIIASRTPEELRAIKQVYEEEYGSSLEDDVVGDTSGYYQRMLVVLLQANRDPDAGIDEAQVEQDAQALFQAGELKWGTDEEKFITIFGTRSVSHLRKVFDKYMTISGFQIEETIDRETSGNLEQLLLAVVKSIRSIPAYLAETLYYAMKGAGTDDHTLIRVMVSRSEIDLFNIRKEFRKNFATSLYSMIKGDTSGDYKKALLLLCGEDD", "values": [
      {"measurement": "reduction in DENV infection", "setting": "[5]", "result": "~60", "unit": "%"},
      {"measurement": "effect on VSVg-HIV potentiation of the Gas6 dose-response curve for Axl activation", "setting": "[6]", "result": "significantly attenuated"}
    ]}
  ]
}
